Source: patent publication US20170369592A1, “NOVEL ANTI-FIBROBLAST ACTIVATION PROTEIN (FAP) ANTIBODIES AND USES DERIVED THEREOF” (Mabimmune Diagnostics AG, priority 2015, published 2017)

How the values were obtained:
rhFAP = target: T1, rhFAP (Homo sapiens, UniProt Q12884); assay: Inhibition assay on SB9 oligopeptidase family (DQ-gelatin); format: biochemical; details: antibody up to 1000 nM, enzyme 0.2 nM
T1 construct: purchased Sino Biologicals 10464-H07H
T1 sequence (Q12884 26-760 limits assumed): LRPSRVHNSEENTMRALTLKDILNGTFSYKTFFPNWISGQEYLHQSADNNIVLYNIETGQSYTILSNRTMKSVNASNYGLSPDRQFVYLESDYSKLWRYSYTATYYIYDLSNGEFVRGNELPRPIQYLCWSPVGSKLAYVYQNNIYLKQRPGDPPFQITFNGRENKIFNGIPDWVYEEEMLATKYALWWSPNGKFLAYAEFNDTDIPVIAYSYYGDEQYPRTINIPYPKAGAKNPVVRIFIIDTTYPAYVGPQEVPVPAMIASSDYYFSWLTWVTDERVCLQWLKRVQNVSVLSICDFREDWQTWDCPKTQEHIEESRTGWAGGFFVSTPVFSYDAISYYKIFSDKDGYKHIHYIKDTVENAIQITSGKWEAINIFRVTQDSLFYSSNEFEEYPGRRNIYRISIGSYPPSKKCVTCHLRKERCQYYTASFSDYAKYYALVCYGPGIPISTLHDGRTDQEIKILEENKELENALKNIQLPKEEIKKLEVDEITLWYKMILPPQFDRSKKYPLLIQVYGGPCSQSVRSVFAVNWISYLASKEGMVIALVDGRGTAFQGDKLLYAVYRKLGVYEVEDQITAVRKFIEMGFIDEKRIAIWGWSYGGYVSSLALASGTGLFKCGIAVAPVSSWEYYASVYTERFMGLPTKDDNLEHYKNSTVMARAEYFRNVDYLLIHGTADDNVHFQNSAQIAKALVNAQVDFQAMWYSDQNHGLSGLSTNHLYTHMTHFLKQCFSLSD
Experimental: To determine the inhibitory ability of the antibody a black 96 well plate was blocked for 1 h with blocking buffer. NI-206.82C2 was pipetted at concentrations of 1000, 50, 10, 3.03, 1.01, 0.031, 0.001, and 0 nM in PBS into the according wells. The enzymes were added at a concentration of 0.2 nM. Finally, fluorgenic substrates were then added to the well at a concentration equal to the Michaelis constant (Km) and the velocity of the substrate cleavage was quantified by fluorescence at 360 nm excitation and 460 nm emission. H-Gly-Pro-AMC (AAT Bioquest, 13450) was used for DPP4, DPP9, and DPP8. Z-Gly-Pro-AMC (BaChem, I1145) was used to evaluate the activity of POP/PREP. FAP activity was assessed using DQ-gelatin (Life Technologies, D12054) and cleavage quantified at 495 nm excitation and 515 nm emission.

FAP from human plasma = target: T2, FAP from human plasma (Homo sapiens, UniProt Q12884); assay: Immunoprecipitation of FAP from human plasma, α2AP-AMC cleavage in supernatant; format: biochemical; details: compared to plasma before immunoprecipitation
T2 construct: from tissue; host or cells: human blood plasma
T2 sequence (Q12884 24-760 limits assumed): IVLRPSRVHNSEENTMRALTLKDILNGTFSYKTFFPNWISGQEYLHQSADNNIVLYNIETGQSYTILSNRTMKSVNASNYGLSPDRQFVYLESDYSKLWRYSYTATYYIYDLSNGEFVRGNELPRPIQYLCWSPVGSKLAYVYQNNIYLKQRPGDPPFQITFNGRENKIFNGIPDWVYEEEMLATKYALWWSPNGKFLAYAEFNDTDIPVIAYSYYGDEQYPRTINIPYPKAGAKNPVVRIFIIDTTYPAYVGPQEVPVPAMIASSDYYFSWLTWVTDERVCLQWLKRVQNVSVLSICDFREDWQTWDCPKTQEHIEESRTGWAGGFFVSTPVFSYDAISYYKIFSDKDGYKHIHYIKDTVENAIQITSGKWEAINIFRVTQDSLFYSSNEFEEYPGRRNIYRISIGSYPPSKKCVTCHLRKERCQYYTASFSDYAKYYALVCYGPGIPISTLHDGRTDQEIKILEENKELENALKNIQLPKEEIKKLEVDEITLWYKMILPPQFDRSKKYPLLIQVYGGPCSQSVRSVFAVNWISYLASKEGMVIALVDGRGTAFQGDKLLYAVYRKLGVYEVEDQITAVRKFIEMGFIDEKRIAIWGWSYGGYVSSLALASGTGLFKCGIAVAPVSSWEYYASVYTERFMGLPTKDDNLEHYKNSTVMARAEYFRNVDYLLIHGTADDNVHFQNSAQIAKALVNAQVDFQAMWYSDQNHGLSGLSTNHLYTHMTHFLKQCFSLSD
Experimental: 100 μL of PureProteome G Magnetic Beads (Millipore LSKMAGG02) were suspended in 500 μL of 25 mM TRIS, 0.15M NaCl, and 0.1% Tween 20. Human plasma was diluted 1:5 in PBS to an end volume of 125 μL, separated into four tubes, and incubated for 30 min at RT with rotation. Beads were then collected with a magnetic stand, and the pre-cleared supernatant was transferred to a new tube containing magnetic beads coated with 82C2, 43A11, or 3A1. Antibody-conjugated beads were incubated with the plasma dilution overnight at 4° C. while rotating. Beads were then collected with a magnetic stand and the supernatant was removed of analysis of α2AP-AMC cleavage activity. To determine α2AP-AMC activity in the supernatants, a half area black 96 well plate was blocked with sterile filtered 5% BSA at 37° C. for 1h. Then 40 μL of PBS was added to all the wells, 5 μL of the supernatant solutions to the appropriate wells, and 5 μL of α2AP-AMC solution in methanol was added for a final assay concentration of 10 μM. The fluorescence intensity (cleaved AMC) was measured at 360 nm excitation and 460 nm emission every 3 min over a total time of 30 min and the reaction velocity was calculated using Graphpad Prism 6 software.

B1: NI-206.82C2: recombinant human memory B cell-derived monoclonal anti-FAP IgG1 antibody, variable regions in FIG. 1A, FAP inhibitory (antibody, V domains shown)
VH: QVQLQQSGPGLVKPSQTLSLTCAISGDSVSSNSVTWNWIRQSPSRGLEWLGRTYYRSKWYNDYAVSVKGRITINPDTSKNQFYLQLKSVTPEDAAVYYCARDSSILYGDYWGQGTLVTVSS
VL: QAVLTQPSSLSASPGASASLTCTLPSGINVGTYRIFWFQQKPGSPPQYLLSYKSDSDNHQGSGVPSRFSGSKDASANAGILLISGLQSEDEADYYCMIWHSSAWVFGGGTKLTVL
rhFAP
  inhibition of rhFAP: selectively inhibits
FAP from human plasma
  rate of FAP substrate alpha 2 anti-plasmin (α2AP-AMC) cleavage in plasma after immunoprecipitation: significantly reduces
